In PMC5207143:

Assays:
[1] = molecular target: human FcγRIIB receptor (on transfected Expi293F cells) (human) (UniProt P31994); experiment: flow cytometry on cells; Expi293F cells transiently transfected with a human Fcγ receptor, 48 h after transfection; 1 to 10000 ng/ml test antibody, 1.5 h at 4 °C; R-phycoerythrin anti-human IgG secondary antibody; EC50 by nonlinear regression of mean fluorescence
[2] = molecular target: human FcγRIIA receptor, Arg131 allotype (on transfected Expi293F cells) (human); experiment: as above
Chain of human FcγRIIA receptor, Arg131 allotype (on transfected Expi293F cells) (human) (P12318 other isoform, or with tags, fused parts or gaps): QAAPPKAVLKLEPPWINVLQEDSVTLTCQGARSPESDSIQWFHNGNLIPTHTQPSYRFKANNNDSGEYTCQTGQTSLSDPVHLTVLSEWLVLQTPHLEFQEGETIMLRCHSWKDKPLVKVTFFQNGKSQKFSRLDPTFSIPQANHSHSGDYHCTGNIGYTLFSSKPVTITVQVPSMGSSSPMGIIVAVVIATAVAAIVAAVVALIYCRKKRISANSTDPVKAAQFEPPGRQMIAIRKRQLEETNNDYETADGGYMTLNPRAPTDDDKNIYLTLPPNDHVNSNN

[3] = molecular target: FcγRIIB on Raji cells (human (endogenous in Raji)) (UniProt P31994)
[4] = molecular target: OX40SF2IgG1E345R/E430G/S440Y (human); experiment: SEC-MALS; purified antibody in solution; monomeric peak and a ∼900 kDa peak

EC50 [1] [nM]	EC50 [2] [nM]	fold more potent EC50 than OX40SF2IgG1 [2] [fold]	agonism in the HEK-Blue NF-κB reporter assay, HEK-Blue:OX40 cells co-cultured with Raji cells, 10 to 1000 ng/ml antibody; decreased when Raji cells were pre-blocked with 5 μg/ml 2B6 [3] [fold]	stoichiometry N [4]	Binder
3.1	1.5	20	> 2		OX40SF2IgG1S267E/L328F (antibody, V domains shown) VH: QVQLVQSGAEVKKPGSSVKVSCKASGYTFKDYTMHWVRQAPGQGLEWIGGIYPNNGGSTYNQNFKDRVTLTADKSTSTAYMELSSLRSEDTAVYYCARMGYHGPHLDFDVWGQGTTVTVSS VL: DIQMTQSPSSLSASVGDRVTITCKASQDVGAAVAWYQQKPGKAPKLLIYWASTRHTGVPSRFSGSGSGTDFTLTISSLQPEDFATYYCQQYINYPLTFGGGTKVEIK
				6	OX40SF2IgG1E345R/E430G/S440Y (antibody, V domains shown) VH: QVQLVQSGAEVKKPGSSVKVSCKASGYTFKDYTMHWVRQAPGQGLEWIGGIYPNNGGSTYNQNFKDRVTLTADKSTSTAYMELSSLRSEDTAVYYCARMGYHGPHLDFDVWGQGTTVTVSS VL: DIQMTQSPSSLSASVGDRVTITCKASQDVGAAVAWYQQKPGKAPKLLIYWASTRHTGVPSRFSGSGSGTDFTLTISSLQPEDFATYYCQQYINYPLTFGGGTKVEIK
